Assay in all cases: BLI
In general terms: In BLI a coated tip is dipped into the sample, and binding shifts an interference pattern.

The target of experiment [1] is M15 triple mutant with all three light chain mutations (S32I, G51A, T57I) reverted to germline (human).
The target of experiment [2] is M15 single reverted mutant G51A (light chain residue 51 reverted to the germline residue) (human).
The target of experiment [3] is M15 single reverted mutant T57I (light chain residue 57 reverted to the germline residue) (human).
For experiment [4], the target named is M15 single reverted mutant S32I (light chain residue 32 reverted to the germline residue) (human).

In the case of “SARS-CoV-2 WA1/2020 S2 protein (stabilized prefusion SARS-CoV-2 spike S2 trimer) (from UniProt P0DTC2) (domain or fragment)”, the fold decrease in binding affinity compared to M15 in experiment [1] was 12 fold; in experiment [2] it was 1.88 fold; in experiment [3], 1.02 fold; in experiment [4], 1.45 fold.

These data come from article PMC11952319.
